From patent US20090299035A1

Tests used:
[1] = target: Human IgG (Sigma-Aldrich Corporation) (human); test: human IgG captured on the protein-immobilized Amino-Cellulofine carrier, released with 0.1 M acetic acid, A280
[2] = target: Human IgG (Sigma-Aldrich Corporation) (human); test: Biacore SPR; protein on NTA chip, human IgG injected
[3] = target: Human IgG (Sigma-Aldrich Corporation) (human); test: Biacore SPR; protein on NTA chip, human IgG injected; reference repeated from Table 2
[4] = target: Human IgG (Sigma-Aldrich Corporation) (human); test: Biacore SPR; protein on NTA chip, human IgG injected; reference repeated from Table 3

Row | Amount of bound human IgG (mg/ml carrier) [1] | Kd [2] [pM] | koff [2] [s⁻¹] | kon [2] [M⁻¹ s⁻¹] | other results | Binder
1 | 10 |  |  |  |  | Immobilization carrier SEQ ID NO: 5 (←SEQ ID NO: 2) (designed binder, carboxy terminus bound to a primary amino group on Amino-Cellulofine via an amide bond) AYRLILNGRTLRGETTTEAVDAATAERVFRQYANDNGVDGEWTYDDATRTFTVTERPEVIDASELTPAVTGGGG
2 |  | 384 | 0.000154 | 401000 | Kd [3]: 384 pM; koff [3]: 0.000154 s⁻¹; kon [3]: 401000 M⁻¹ s⁻¹ | pPG (SEQ ID NO: 2) (designed binder) AYRLILNGRTLRGETTTEAVDAATAERVFRQYANDNGVDGEWTYDDATRTFTVTERPEVIDASELTPAVTGGGGCADDDDDDHHHHHH
3 |  | 788 | 0.000237 | 301000 |  | Protein expressed from pLL3T (SEQ ID NO: 26 repeated three times, n = 3) (designed binder) ATIRANLIYADGRTQTAEFRGTFEEATAEAYRYADLLARENGRYTVDVADRGYTLNIRFAPGATIRANLIYADGRTQTAEFRGTFEEATAEAYRYADLLARENGRYTVDVADRGYTLNIRFAPGATIRANLIYADGRTQTAEFRGTFEEATAEAYRYADLLARENGRYTVDVADRGYTLNIRFAPGGGGGCADDDDDDHHHHHH
4 |  | 2060 | 0.000312 | 151000 | Kd [4]: 2060 pM; koff [4]: 0.000312 s⁻¹; kon [4]: 151000 M⁻¹ s⁻¹ | pPL (SEQ ID NO: 3) (designed binder) ATIRANLIYADGRTQTAEFRGTFEEATAEAYRYADLLARENGRYTVDVADRGYTLNIRFAGGGGGCADDDDDDHHHHHH
5 | 3 |  |  |  |  | Immobilization carrier SEQ ID NO: 6 (←SEQ ID NO: 3) (designed binder, carboxy terminus bound to a primary amino group on Amino-Cellulofine via an amide bond) ATIRANLIYADGRTQTAEFRGTFEEATAEAYRYADLLARENGRYTVDVADRGYTLNIRFAGGGGG
6 |  | 68 | 7.63e-05 | 1.12e+06 |  | Protein expressed from pGG3T (SEQ ID NO: 25 repeated three times, n = 3) (designed binder) AYRLILNGRTLRGETTTEAVDAATAERVFRQYANDNGVDGEWTYDDATRTFTVTERPEVIDASELTPAVTPGAYRLILNGRTLRGETTTEAVDAATAERVFRQYANDNGVDGEWTYDDATRTFTVTERPEVIDASELTPAVTPGAYRLILNGRTLRGETTTEAVDAATAERVFRQYANDNGVDGEWTYDDATRTFTVTERPEVIDASELTPAVTPGGGGGCADDDDDDHHHHHH
